B1: PYL11 fused to the GAL4-DNA binding domain (BD) (receptor, not shown: small tags and cut ends)
chain: METSQKYHTCGSTLVQTIDAPLSLVWSILRRFDNPQAYKQFVKTCNLSSGDGGEGSVREVTVVSGLPAEFSRERLDELDDESHVMMISIIGGDHRLVNYRSKTMAFVAADTEEKTVVVESYVVDVPEGNSEEETTSFADTIVGFNLKSLAKLSERVAHLKL
notes: Yeast two-hybrid construct
B2: PYL11-nLUC (receptor)
chain: B1 chain
notes: LUC complementation assay in protoplasts; also called PYLs-nLUC; not shown: N-terminal domain of firefly luciferase
B3: c-myc-tagged PYL13 (other)
chain: MESSKQKRCRSSVVETIEAPLPLVWSILRSFDKPQAYQRFVKSCTMRSGGGGGKGGEGKGSVRDVTLVSGFPADFSTERLEELDDESHVMVVSIIGGNHRLVNYKSKTKVVASPEDMAKKTVVVESYVVDVPEGTSEEDTIFFVDNIIRYNLTSLAKLTKKMMK
notes: Transiently expressed in Col-0 protoplasts for co-IP; also called c-myc-PYL13; MYC-PYL13; not shown: c-myc tag
B4: PYL13 fused to the GAL4-activating domain (AD) (other, not shown: large carriers)
chain: B3 chain
notes: also called AD-PYL13
B5: PYL12 fused to the GAL4-DNA binding domain (BD) (receptor, not shown: large carriers; small tags and cut ends)
chain: MKTSQEQHVCGSTVVQTINAPLPLVWSILRRFDNPKTFKHFVKTCKLRSGDGGEGSVREVTVVSDLPASFSLERLDELDDESHVMVISIIGGDHRLVNYQSKTTVFVAAEEEKTVVVESYVVDVPEGNTEEETTLFADTIVGCNLRSLAKLSEKMMELT
notes: Yeast two-hybrid construct

Tests used:
[1] = target: ABI1 without tag (purified recombinant) (Arabidopsis) (UniProt P49597); test: cell-based or functional assay
[2] = target: B4; test: yeast two-hybrid, growth on media lacking His and His/Ade, with and without ABA
Method: (§1) To confirm the interaction between PYL13 and PYL2/PYL9 and to determine whether PYL13 may bind with other PYLs, the interaction of PYL13 with PYLs was examined in yeast two-hybrid assays, as shown in FIG. 5. In this experiment, PYL13 interacted with PYR1, PYL1-4, PYL6, and PYL11-12 in an ABA-independent manner (FIG. 5A). PYL13 fused to the GAL4-activating domain (AD) was used as prey, and PYLs fused to the GAL4-DNA binding domain (BD) were used as baits. Interaction was determined by growth assay on media lacking His and His/Ade in the presence and absence of ABA. Dilutions (10⁻¹, 10⁻², and 10⁻³) of saturated cultures were spotted onto the plates, which were photographed after five days. […] Without wishing to be bound by theory, the lack of interaction between […] and PYL9 may be caused by the cellular differences between yeast and Arabidopsis or because of indirect interactions between the two proteins in Arabidopsis.

[3] = target: T1, PYL13-cLUC (Arabidopsis thaliana, UniProt Q9SN51 1-164); test: firefly luciferase complementation in protoplasts (stronger group)
T1 construct: LUC complementation assay in protoplasts; also called PYL13 fused to the C-terminal domain of LUC; not shown: C-terminal domain of firefly luciferase
T1 sequence: B3 chain
Method: To further characterize the interactions between PYL13 and PYLs in vivo, their interactions in protoplasts were examined by the firefly luciferase (LUC) complementation assay. PYL13 was fused to the C-terminal domain of LUC (PYL13-cLUC), and PYLs were fused to the N-terminal domain of LUC (PYLs-nLUC), and co-expressed in protoplasts. After transfection, protoplasts were incubated overnight under light at room temperature, and the LUC activities in living protoplasts were measured. Error bars indicate s.e.m. (n=6). […] PYL13 binds more strongly to PYR1, PYL1-5, PYL7, and PYL10-11 than to PYL6, PYL8-9, or PYL13 (FIG. 5B).

[4] = target: T2, PP2CA-HA (Arabidopsis, UniProt P49598 1-399); test: co-IP from protoplasts with anti-HA agarose, western blot; with or without 10 µM ABA
T2 construct: also called hemagglutinin (HA)-tagged PP2CA; not shown: HA tag
T2 sequence (looked up): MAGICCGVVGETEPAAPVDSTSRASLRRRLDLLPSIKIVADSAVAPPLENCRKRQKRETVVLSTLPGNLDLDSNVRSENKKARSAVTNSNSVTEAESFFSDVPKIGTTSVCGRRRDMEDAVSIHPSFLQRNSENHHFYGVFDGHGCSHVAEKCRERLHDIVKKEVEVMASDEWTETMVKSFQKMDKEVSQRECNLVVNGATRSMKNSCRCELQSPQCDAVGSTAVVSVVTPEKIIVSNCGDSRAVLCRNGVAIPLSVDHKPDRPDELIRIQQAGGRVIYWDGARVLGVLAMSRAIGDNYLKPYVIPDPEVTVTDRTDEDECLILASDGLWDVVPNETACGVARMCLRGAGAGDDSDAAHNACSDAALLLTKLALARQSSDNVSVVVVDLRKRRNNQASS
Source text: Coimmunoprecipitation (co-IP) assays using ABI1-HA and PP2CA-HA as baits captured c-myc-PYL13 in an ABA-independent manner (FIG. 3C). The binding of PP2CA with PYL13 again appeared much stronger than that of ABI1 with PYL13. […] Total soluble proteins (input) were extracted from Arabidopsis protoplasts that transiently expressed the indicated constructs. PP2C-interacting proteins were immunoprecipitated with anti-HA mouse antibodies and detected with anti-HA and anti-cMYC rabbit antibodies.
PP2CA-HA, ABI1-HA, and MYC-PYL13 plasmids (20 μg each) were transiently expressed in wild-type (Col-0) protoplasts. After transfection, protoplasts were incubated in WI buffer under light at room temperature for 16.5 h. Protoplasts were treated with 10 μM ABA for 1.5 h before they were harvested, frozen in liquid N2, and stored at −80° C. The frozen protoplasts were resuspended in 1 ml of immunoprecipitation (IP) buffer containing 50 mM Tris-HCl, pH 7.4, 150 mM NaCl, 1 mM EDTA, 0.1% (v/v) Triton X-100, and 1× protease inhibitor cocktail (SIGMA) with or without 10 μM ABA and then centrifuged at 21000 g for 30 min at 4° C. The supernatant was used as input and was incubated for 4 h at 4° C. with 30 μl of monoclonal anti-HA-agarose antibody produced in mouse (SIGMA, A2095). […]

[5] = target: T3, PYR1 fused to the GAL4-DNA binding domain (BD) (Arabidopsis thaliana, UniProt O49686 1-191); test: yeast two-hybrid, growth on media lacking His and His/Ade, with and without ABA
T3 construct: Yeast two-hybrid construct
T3 sequence: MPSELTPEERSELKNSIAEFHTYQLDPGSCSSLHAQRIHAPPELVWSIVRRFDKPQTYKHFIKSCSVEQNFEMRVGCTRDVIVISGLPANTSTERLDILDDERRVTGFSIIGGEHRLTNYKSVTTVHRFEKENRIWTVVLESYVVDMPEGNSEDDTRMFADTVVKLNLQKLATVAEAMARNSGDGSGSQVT
Method: as §1

[6] = target: T4, PYL3 fused to the GAL4-DNA binding domain (BD) (Arabidopsis thaliana, UniProt Q9SSM7 1-209); test: as above
T4 construct: Yeast two-hybrid construct
T4 sequence: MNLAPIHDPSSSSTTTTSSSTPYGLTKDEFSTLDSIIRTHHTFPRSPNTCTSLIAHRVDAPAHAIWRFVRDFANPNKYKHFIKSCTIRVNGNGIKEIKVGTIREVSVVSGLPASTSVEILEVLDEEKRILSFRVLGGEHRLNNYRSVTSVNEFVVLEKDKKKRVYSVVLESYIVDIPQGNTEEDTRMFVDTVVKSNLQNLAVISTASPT
Method: as §1

[7] = target: T5, PYL4 fused to the GAL4-DNA binding domain (BD) (Arabidopsis thaliana, UniProt O80920 1-207); test: as above
T5 construct: Yeast two-hybrid construct
T5 sequence: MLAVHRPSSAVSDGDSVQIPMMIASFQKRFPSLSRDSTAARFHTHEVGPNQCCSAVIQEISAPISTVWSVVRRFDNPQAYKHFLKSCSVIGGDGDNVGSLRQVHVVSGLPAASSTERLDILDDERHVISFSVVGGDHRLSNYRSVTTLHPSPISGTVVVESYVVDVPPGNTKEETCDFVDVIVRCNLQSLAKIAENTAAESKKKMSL
Method: as §1

[8] = target: T6, PYL6 fused to the GAL4-DNA binding domain (BD) (Arabidopsis thaliana, UniProt Q8S8E3 1-215); test: as above
T6 construct: Yeast two-hybrid construct
T6 sequence: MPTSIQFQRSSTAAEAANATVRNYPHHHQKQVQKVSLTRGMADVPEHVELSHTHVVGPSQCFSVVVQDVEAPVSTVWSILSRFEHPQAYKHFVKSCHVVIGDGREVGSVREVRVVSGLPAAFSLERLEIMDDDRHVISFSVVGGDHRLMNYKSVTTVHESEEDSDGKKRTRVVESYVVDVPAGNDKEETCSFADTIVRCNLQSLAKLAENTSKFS
Method: as §1

Sequence of ABI1 without tag (purified recombinant) (Arabidopsis) (P49597 whole entry): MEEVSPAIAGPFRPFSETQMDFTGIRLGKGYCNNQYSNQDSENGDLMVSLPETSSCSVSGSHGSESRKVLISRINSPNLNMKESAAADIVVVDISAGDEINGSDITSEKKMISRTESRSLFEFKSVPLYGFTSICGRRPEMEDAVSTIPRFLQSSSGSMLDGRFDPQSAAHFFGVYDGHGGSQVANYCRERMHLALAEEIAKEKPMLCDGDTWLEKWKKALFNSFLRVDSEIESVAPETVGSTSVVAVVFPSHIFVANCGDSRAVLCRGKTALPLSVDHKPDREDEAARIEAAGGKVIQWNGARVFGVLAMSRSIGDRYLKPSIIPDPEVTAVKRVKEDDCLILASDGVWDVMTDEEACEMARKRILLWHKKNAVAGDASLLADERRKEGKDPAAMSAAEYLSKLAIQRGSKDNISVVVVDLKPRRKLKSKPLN

Work on “PYL1 (purified recombinant protein, phosphatase assay) (from UniProt Q8VZS8 1-221) (receptor)” yielded an ABI1 phosphatase activity (pNPP, A405, % of ABI1 without ABA and PYLs), 10 µM ABA, 0.3 µM each [1] of 67%.

With “PYL13-PYL1 protein complex (from UniProt Q9SN51 1-164; Q8VZS8 1-221)” the ABI1 phosphatase activity (pNPP, A405, % of ABI1 without ABA and PYLs), 10 µM ABA [1] was 88%.

“PYL2 (purified recombinant protein, phosphatase assay) (from UniProt O80992 1-190) (receptor)” showed an ABI1 phosphatase activity (pNPP, A405, % of ABI1 without ABA and PYLs), 10 µM ABA, 0.3 µM each [1] of 50%.

In the case of “PYL13-PYL2 protein complex (from UniProt Q9SN51 1-164; O80992 1-190)”, the ABI1 phosphatase activity (pNPP, A405, % of ABI1 without ABA and PYLs), 10 µM ABA [1] is reported as 78%.

B1: binds [2].

B2: binds [3].

B3: binds [4].

B4: binds [5]; binds [6]; binds [7]. B4: binds [8].

B5: binds [2].
